# Entries after “also recorded” stand apart in the source; their conditions may differ.
# B1: GNbAC1: recombinant humanized anti-Env IgG4 monoclonal antibody comprising the CDRs of SEQ ID No. 1 to 6 (antibody, chains of the INN, looked up, V domains shown)
# VH: QVQLVQSGAEVKKPGSSVKVSCKASGYTFTDYEMHWVRQAPGQGLEWIGAVAPETGGTAYNQKFKGRATITADKSTSTAYMELSSLRSEDTAVYYCTSTVVPFAYWGQGTLVTVSS
# VL: QIQLTQSPSSLSASVGDRVTITCSASSSVSYMYWYQQKPGKAPKAWIYRTSNLASGVPSRFSGSGSGTDYTLTISSLQPEDFATYYCQQYQSLPLTFGGGTKVEIK
# Key:
# [1] = tested on: MSRV-Env induced EAE in C57BL/6 mice; experiment: EAE clinical score, Example 3.A (EAE induced with MOG and MSRV-Env); format: in vivo; conditions: treatment from day 12 to day 29: GNbAc1 200 μg once, L-NAME 600 μg IP and SMT 1 mg IP every 4 days, DMF 1 mg daily in drinking water
# Excerpt: Pathogen free female C57BL/6 nice (6-8 weeks old) were purchased from the Charles River laboratories and maintained at the animal facilities for one week before immunization. One day before immunization, all mice have been weighed, and then evaluated on the Rotarod Test. Rotarod:
# (§1) Animals were weighed and clinically scored 5 days per week according to the following criteria: 0=no signs; 1=tail paralysis or hyper-reflex of hind limb(s) or unilateral hind limb weakness; 2=bilateral hind limb or forelimb weakness; 3=plus unilateral paralysis or major deficit; 4=complete hind limb or forelimb paralysis; 5=plus partial paralysis or major deficit of opposite limbs; 6=moribund or dead. These were adapted from standard criteria, in order to reflect the more rapid induction of brain and cervical cord lesions with this model.
# (§2) All groups of 6 (six) mice have been first injected s.c. in the neck on day 0 then in the dorsal flanks on day 7 and 14; with 200 μg of MOG/mouse+60 μg of MSRV-Env+IFA.
# (§3) For Groups G to H, the treatments with GNbAc1, L-NAME, SMT and DMF alone or together with GNbAc1 with the doses indicated below, have been initiated on day 12 post immunization when the progression of EAE clinical symptoms was already observed. GNbAc1 humanized antibody was administered once, but L-Name or SMT was administered every 4 days until termination of the study on day 29. Regarding Groups E and H, attributed for the treatment with DMF, we have previously determined the volume of daily water consumption by each mouse and it has been determined that (in our condition), each mouse consumed around 3.5 ml drinking water per day. Thus, on the basis of this measurement, a dose of 1 mg DMF+0.08% Methocel per mouse were added to 3.5 ml drinking water daily.
# 350 ng of pertussis toxin (PTX) per animal was injected (i.p.) in all groups on the same day following each immunogen injection, and replicated 2 days later, as usual in EAE protocols in order to facilitate the migration lymphocytes through the blood-brain barrier.
# [2] = tested on: MSRV-Env induced EAE in C57BL/6 mice; experiment: Rotarod test, Example 3.A (MSRV-Env induced EAE); format: in vivo; conditions: Example 3.A doses
# Method: 9 and 8 days before immunization. Transfer of mice, in their home cages, from the holding room to the experimental room. Mice are habituated to the experimental room for 15 min. During the training period, each mouse was placed on the rotarod at a constant speed (4 rpm) if one mouse was falling, she was back on rotarod, when mice were comfortable on the rotarod, mice were running during 120 sec. All mice were returned to their cage, the speed was increased to 13 rpm and mice were again put on the rotarod for 120 sec. All mice were returned to their cage, the speed was increased to 19 rpm and mice were again put on the rotarod for 120 sec. The experimental-room environment were kept constant between test sessions with respect to temperature, and light intensity.
# 1 day before each immunization, mice were transferred in their home cages, from the holding room to the experimental room. Mice were habituated to the experimental room for 15 min. Mice then received two trials at 10 increasing speed levels, ranging from 7 to 40 rpm. Individual delays before falling off the rotarod (for the two trials at each speed level) was recorded until 60 sec. Thus, training and performance on the Rotarod system were determined for each animal.
# The ROTAROD test results are expressed as kinetics of the mean of individual scores for each group with SEM indicated by bars, for each test day and for each test speed within the discriminating range for neuromotor impairment in present conditions (16 to 29 rpm).
# They are calculated for each individual mouse, for each test day and for each speed value, as the relative gain or loss of time on Rotarod (before falling), compared to the first test day at the same speed (D-7, before starting the disease induction in relevant groups). The value is calculated as “Time on Rotarod at dayX”−“Time at Day-7 for the same mouse at the same speed”. Figures illustrate the kinetics for the different groups on the whole study period, for representative discriminative speed values when validated to differentiate ill from healthy animals in our conditions (e.g., too high or too low speed values either made healthy ones fall immediately or ill ones capable to sustain a slow movement).
# as §2, §3
# [3] = tested on: MSRV-Env induced EAE in C57BL/6 mice; experiment: EAE clinical score with intravenous MSRV-Env challenge, Example 3.B; format: in vivo
# Excerpt: as §1
# When not specified, all materials and methods were as described for Example 3A.
# All mice received three injections s.c. on the neck at DO, on the dorsal flank at D7 and D14. Here, mice from Group A were injected with 200 μg/mouse of MOG and IFA only, without Env, thus constituting a negative control group without EAE in the present series (ctrl −). The positive control group with untretated EAE in the present series is represented by Group B (ctrl +). Other groups were injected with 200 μg of MOG/mouse+MSRV-ENV (60 μg)+IFA, with treatments as indicated in the above summarized presentation. […]
# For Groups G and H receiving DMF, we have previously determined the volume of daily water consumption by each mouse and it has been realized that (in our condition), each mouse consumed around 3.5 ml drinking water per day. […]
# [4] = Weight gain kinetics, Example 3.B; format: in vivo, mice
# Method: Mice were weighed 3 times a week on Monday, Wednesday and Friday during all experiment.
# All mice received three injections s.c. on the neck at DO, on the dorsal flank at D7 and D14. Here, mice from Group A were injected with 200 μg/mouse of MOG and IFA only, without Env, thus constituting a negative control group without EAE in the present series (ctrl −). The positive control group with untretated EAE in the present series is represented by Group B (ctrl +). Other groups were injected with 200 μg of MOG/mouse+MSRV-ENV (60 μg)+IFA, with treatments as indicated in the above summarized presentation. Treatments have been initiated on day 12 post immunization in their corresponding groups.
# The clinical signs score and weight were evaluated regularly as described above. The EAE clinical score kinetics over the study period are represented in FIGS. 22, 23 and 24. The weight curves, indicating relative weight gain compared to the day before first injection of immunogens, are presented in FIGS. 25, 26 and 27.
molecule,measurement,setting,value
B1,EAE clinical score kinetics and recovery,[1],improve after its injection
same,EAE clinical score kinetics and recovery,[1]; listed as GNbAc1,diminished slightly
same,Rotarod scores in all conditions (16 to 29 rpm tests),[2]; compared to untreated group A / to GNbAc1 alone,greatly stabilized and/or improved scores
same,Time on Rotarod at 23 rpm relative to Day -7,[2]; end of study period,recovered a score similar to control mice without disease induction
same,Time on Rotarod at 26 rpm relative to Day -7,[2]; end of study period,"recovered a score similar to D,G,C,E and H groups"
same,Time on Rotarod at 29 rpm relative to Day -7,[2]; end of study period,recovered a score similar to control mice without disease induction
same,EAE clinical score after iv MSRV-Env challenge (20 μg),"[3]; GNbAC1 200 μg at day 12, alone or with SMT (I.P. twice a week) or DMF (2 mg daily in drinking water)",transient clinical impairment
same,EAE clinical score after iv MSRV-Env challenge (20 μg),"[3]; GNbAC1 500 μg at day 12, alone or with SMT or DMF (2 mg daily in drinking water)",very efficient in conferring resistance; also recorded: best clinical efficiency
same,"weight gain over the study period, endpoint",[4]; GNbAC1 200 μg,endpoints equivalent to mock-controls
same,"weight gain over the study period, endpoint","[4]; GNbAC1 500 μg, alone or with DMF",best endpoint; also recorded: positive effect on the global health
